Changes are numbered by the printed parent chain.
B1: phage isolate 5-A01 display polypeptide (other)
chain: AEWHPQFSSPSASRPSEGPCHPQFPRCYIENLDEFRPGGSGGDRMYQLDKTGFMIGAQSDGGGSTEHAEGGSADPSYIEGRIVGSA
notes: not shown: M13 phage gene III protein; the display polypeptide is fused to its N-terminus
B2: phage isolate 5-A08 display polypeptide (other)
chain: B1 chain with R44M, M45F, Y46S, Q47E, L48E, K50R, T51M, G52M, F53Q, I55Q
notes: The printed 13-mer is used instead; also called 05-A08; not shown: M13 phage gene III protein; the display polypeptide is fused to its N-terminus
B3: phage isolate 5-H11 display polypeptide (other)
chain: AEWHPQFSSPSASRPSEGPCHPQFPRCYIENLDEFRPGGSGGMGDDDDKIYVYKTGAQSDGGGSTEHAEGGSADPSYIEGRIVGSA
notes: The printed 13-mer is used instead; also called 05-H11; not shown: M13 phage gene III protein; the display polypeptide is fused to its N-terminus
B4: phage isolate 5-A11 display polypeptide (other)
chain: AEWHPQFSSPSASRPSEGPCHPQFPRCYIENLDEFRPGGSGGDLNDVYSERMAMWGAQSDGGGSTEHAEGGSADPSYIEGRIVGSA
notes: The printed 13-mer is used instead; also called 05-A11; not shown: M13 phage gene III protein; the display polypeptide is fused to its N-terminus
B5: phage isolate 5-B05 display polypeptide (other)
chain: B4 chain with D43S, N45D, V47D, Y48R, S49T, E50V, R51S, M52P, A53K, M54F
notes: The printed 13-mer is used instead; also called 05-B05; not shown: M13 phage gene III protein; the display polypeptide is fused to its N-terminus
B6: phage isolate 5-F08 display polypeptide (unselected control) (other)
chain: AEWHPQFSSPSASRPSEGPCHPQFPRCYIENLDEFRPGGSGGAVLSNVMHSDDWTGAQSDGGGSTEHAEGGSADPSYIEGRIVGSA
notes: as for B1

The binders below were run against recombinant light chain enterokinase (Novagen, Madison, Wis.) (UniProt P98072 801-1035) (assay: cell-based or functional assay).
Chain of recombinant light chain enterokinase (Novagen, Madison, Wis.) (P98072 801-1035 limits assumed): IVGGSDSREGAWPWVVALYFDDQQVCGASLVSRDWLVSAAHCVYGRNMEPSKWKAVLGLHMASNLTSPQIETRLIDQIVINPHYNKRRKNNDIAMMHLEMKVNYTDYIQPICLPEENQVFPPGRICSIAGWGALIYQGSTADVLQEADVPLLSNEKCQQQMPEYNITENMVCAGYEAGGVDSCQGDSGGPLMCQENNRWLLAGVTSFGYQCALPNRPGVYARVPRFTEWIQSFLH

Q: DINDDRSLF was tested. Which “test peptide rate (Va), in competition with reference peptide GDDDDK-βNA” value (shortened to “test peptide rate (Va), in competition”) did it give?
A: The value was 0.18.

Q: How did the “test peptide rate (Va), in competition” value turn out when GNYTDRMFI was run?
A: The value was 0.038.

Q: With GDDDDKIYV [GDDDDKIYV (positive control test peptide)] as the binder, how does the “test peptide rate (Va), in competition” value read?
A: The value was 0.028.

What follows are binders tested against T1, streptavidin (UniProt P22629 37-163, limits assumed) (assay: phage ELISA, phage bound to immobilized streptavidin).
T1 construct: Commercial immobilized streptavidin; the construct is not described; also called Sv; immobilized streptavidin
T1 sequence (P22629 37-163 limits assumed): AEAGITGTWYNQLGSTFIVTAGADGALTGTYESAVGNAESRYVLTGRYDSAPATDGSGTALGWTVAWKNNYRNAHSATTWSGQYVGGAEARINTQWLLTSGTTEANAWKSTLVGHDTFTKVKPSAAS

Q: Does B1 bind?
A: Result: binds

Q: Does B2 bind?
A: Result: binds

Q: Does B3 bind?
A: Result: binds

Q: Does B4 bind?
A: Result: binds

Q: Does B5 bind?
A: Result: binds

Q: Does B6 bind?
A: Result: binds
